3 molecules from PMC3481213 can be followed below.

Series [1] addresses Brachypodium distachyon cinnamyl alcohol dehydrogenase 5 (BdCAD5), recombinant 6xHis-tagged (Brachypodium distachyon). Nature of the series: SEC. In general terms: SEC sorts molecules by how far they enter the pores of the column.
Substrate in series [2]: COc1cc(/C=C/C=O)ccc1O
Put plainly: purified protein. The following applies: co-substrate NADPH.

Substrate in series [3]: COc1cc(/C=C/CO)ccc1O
Put plainly: purified protein. The following applies: co-substrate NADP+, 100 mM TRIS-HCl pH 8.8, 23 °C, n = 1.

Setting [4] is: 100 mM sodium acetate pH 5.35, 23 °C.
Setting [5] is: 200 mM potassium phosphate pH 6.25, 23 °C.

Consider “Brachypodium distachyon cinnamyl alcohol dehydrogenase 5 (BdCAD5), recombinant 6xHis-tagged (enzyme)”, for which, in series [1], the percent of peak area at the dimer position was 24% and the stoichiometry N – broadly, the number of molecules, sites or subunits per partner or assembly – was 2.

B1: BdCAD3 (Brachypodium distachyon) (protein)
chain: MEQGKAALGWAARDASGHLSPYNFSRRVQKDDDVTIKVLFCGICHTDLHIIKNEWGNALYPIVPGHEVVGVVTDVGPGVKNFKAGETVGVGYFLDSCRTCDSCSKGHENYCPTLVLTSNGVDYDGATTQGGFSDVVVVNQDYVVRVPDTLPPDGAAPLLCAGVTVYSPMMQYGLNAPGKHLGVVGLGGLGHMAVKFGKAFGMKVTVISSSLRKREEALDRLGADDFLVSSDAEQMKAAAGAMDGIIDTVSAGHPIVPLLELLRPMGQMVVCGAPSEPLQLPAYAVITGGKRIAGNGVGSVRDCQAMLDFAGEHGITADVEVVKMDYVNTAVERLERNDVRYRFVIDVAGSLQQGGAA
Turning to B1, in the series “purified protein [2]” (setting [4]), the Michaelis constant (Km) – broadly, the substrate concentration at which the rate is half of its maximum – was 33.3 ± 3.80 µM; the Vmax (usually the rate approached at saturating substrate) was 9.26 µmol/min/mg; the turnover number (kcat) (usually the maximal rate divided by the concentration of active sites) was 8.66 s⁻¹; the kcat/Km (in general, the turnover number divided by the Michaelis constant) amounted to 260000 M⁻¹ s⁻¹. In the series “purified protein [3]”, the Km turned out to be 509.1 ± 134.0 µM, the Vmax amounted to 36.7 µmol/min/mg, the kcat came to 34.3 s⁻¹ and the kcat/Km turned out to be 67000 M⁻¹ s⁻¹.

B2: BdCAD5 (Brachypodium distachyon) (protein)
chain: MGSIASEERTVTGWAARDADGHLSPYTYTLRKTGPEDVLVKVLYCGICHTDIHQAKNHLGASKYPMVPGHEVVGEVVEVGGEVSKYSAGDVVGVGVIVGCCRECRPCKASVEQYCNKRIWSYNDVYTDGRPTQGGFSSAMVVDQKFVVRIPAGLAPEQAAPLLCAGVTVYSPLKHFGLMSPGLRGGILGLGGVGHMGVKVAKSMGHHVTVISSSGKKRAEAMDDLGADAYLVSSDADQMAAAADSLDYVIDTVPVKHPLEPYLSLLKMDGKLVLMGVIGEPLSFVSPMVMLGRKSITGSFIGSMEETEEVLKFCVEKGLTSQIEVVKMDYLNEALERLERNDVRYRFVVDVAGSKIEDAA
Turning to B2, in the series “purified protein [2]” (setting [5]), the Km is 3.1 ± 0.44 µM, the Vmax was 29.5 µmol/min/mg, the turnover number (kcat) amounted to 38.6 s⁻¹ and the kcat/Km turned out to be 1.29e+07 M⁻¹ s⁻¹. Further, in the series “purified protein [3]”, the Michaelis-Menten constant (Km) is 1.44 ± 0.24 µM, the Vmax amounted to 7.91 µmol/min/mg, the catalytic constant (kcat) worked out at 10.3 s⁻¹ and the kcat/Km turned out to be 7.19e+06 M⁻¹ s⁻¹.
